Reference: the supplement of paper PMC7877785
± gives the uncertainty stated by the source.

Assay: self-splicing fitness, log relative to wild type (ln ratio); higher = more splicing; Tetrahymena group I intron in knt gene, E. coli kanamycin selection, DiMSum; sequences stand for … in CUCUCU…GGAGGGAAAAGUUAUCAGGCAUGCACCUGGUAGCUAGUCUUUAAACCAAUAGAUUGCAUCGGUUUAAAAGGCAAGACCGUCAAAUUGCGGGAAAGGGGUCAACAGCCGUUCAGUACCAAGUCUCAGGGGAAACUUUGAGAUGGCCUUGCAAAGGGUAUGGUAAUAAGCUGACGGACAUGGUCCUAACCACGCAGCCAAGUCCUAAGUCAACAGAUCUUCUGUUGAUAUGGAUGCAGUUCACAGACUAAAUGUCGGUCGGGGAAGAUGUAUUCUUCUCAUAAGAUAUAGUCGGACCUCUCCUUAAUGGGAGCUAGCGGAUGAAGUGAUGCAACACUGGAGCCGCUGGGAACUAAUUUGUAUGCGAAAGUAUAUUGAUUAGUUUUGGAGUACUCGUGGUCG
Outline: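 Colonies from six replicate transformations of E. coli BL21(DE3) were pooled and amplicon-sequenced on an Illumina HiSeq 2500. The library placed an intron with all eight P1ex-region nucleotides randomised inside the knt kanamycin-resistance gene on pET-22b(+), and cells grew overnight at 37°C or 30°C on LB agar with or without 25 μg/mL kanamycin (plus 100 μg/mL carbenicillin, 50 μM IPTG, 0.2% rhamnose). Fitness is the DiMSum error-weighted combination of wild-type-normalised replicate fold changes, kanamycin versus none.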

Row | Sequence | self-splicing fitness (ln) (30 °C) | self-splicing fitness (ln) (37 °C)
1 | AUCGAGCAAUAUUACGGAGA | -2.8 ± 0.22 | -2.7 ± 0.29
2 | UGACAGCAAUAUUACGAUUU | -0.733 ± 0.094 | -0.108 ± 0.1
3 | ACGUAGCAAUAUUACGUCAA | -3.44 ± 0.27 | -2.34 ± 0.19
4 | GUGAAGCAAUAUUACGCGUA | -0.298 ± 0.14 | 0.0699 ± 0.14
5 | CGUAAGCAAUAUUACGCGGC | -2.84 ± 0.25 | -2.23 ± 0.3
6 | UCCUAGCAAUAUUACGGUAC | -3.79 ± 0.26 | -3.32 ± 0.47
7 | UAUCAGCAAUAUUACGUGAC | -0.555 ± 0.1 | -1.45 ± 0.15
8 | UACCAGCAAUAUUACGGAGU | -3.23 ± 0.13 | -2.4 ± 0.17
9 | CAGGAGCAAUAUUACGGUUA | -3.1 ± 0.37 | -3.41 ± 0.4
10 | AACUAGCAAUAUUACGCAUG | -1.25 ± 0.083 | -0.11 ± 0.086
11 | GUCAAGCAAUAUUACGAAAC | -1.37 ± 0.27 | 0.108 ± 0.3
12 | UAAAAGCAAUAUUACGCAUU | -3.33 ± 0.19 | -2.15 ± 0.19
13 | AACUAGCAAUAUUACGAAUU | -1.49 ± 0.076 | -0.396 ± 0.097
14 | GAUCAGCAAUAUUACGACAC | 0.702 ± 0.14 | 0.591 ± 0.17
15 | AGGGAGCAAUAUUACGUGGA | -1.45 ± 0.14 | -2.81 ± 0.26
16 | CGCAAGCAAUAUUACGACAU | -2.999 ± 0.017 | -1.77 ± 0.034
17 | CAUUAGCAAUAUUACGCAUU | -3.32 ± 0.15 | -1.62 ± 0.094
18 | CAUCAGCAAUAUUACGCAAA | -2.39 ± 0.15 | -2.48 ± 0.21
19 | AAUAAGCAAUAUUACGUCAG | -3.34 ± 0.18 | -1.82 ± 0.13
20 | CACAAGCAAUAUUACGGUAU | -3.8 ± 0.14 | -2.35 ± 0.12
21 | ACACAGCAAUAUUACGAAUA | -2.21 ± 0.13 | -1.6 ± 0.11
22 | AGGUAGCAAUAUUACGUUUC | -3.528 ± 0.026 | -2.18 ± 0.039
23 | GGAUAGCAAUAUUACGUAGG | -2.82 ± 0.19 | -1.52 ± 0.18
24 | UACAAGCAAUAUUACGUCGU | -3.83 ± 0.18 | -2.04 ± 0.17

Row | Sequence | self-splicing fitness (ln) (30 °C) | self-splicing fitness (ln) (37 °C)
25 | CUUGAGCAAUAUUACGCCUA | – | -3.13 ± 0.44
26 | AUUUAGCAAUAUUACGUACU | -0.21 ± 0.11 | -0.13 ± 0.15
27 | GGAUAGCAAUAUUACGGCGC | 0.356 ± 0.34 | 0.121 ± 0.33
28 | CUCUAGCAAUAUUACGAUAG | -3.88 ± 0.2 | -3.58 ± 0.28
29 | GAUAAGCAAUAUUACGGAUC | -1.37 ± 0.18 | -0.674 ± 0.25
30 | UCAUAGCAAUAUUACGGGAU | -3.11 ± 0.18 | -2.87 ± 0.28
31 | AAAAAGCAAUAUUACGCGGG | -2.76 ± 0.16 | -1.93 ± 0.15
32 | GAUUAGCAAUAUUACGAACC | -0.528 ± 0.24 | -0.802 ± 0.37
33 | CCAAAGCAAUAUUACGAUGU | -2.93 ± 0.1 | -2.1 ± 0.11
34 | CCCCAGCAAUAUUACGGCCC | – | -1.64 ± 0.47
35 | UGCCAGCAAUAUUACGAAGC | -3.74 ± 0.22 | -1.91 ± 0.18
36 | AAUUAGCAAUAUUACGGAGG | -3.68 ± 0.39 | -1.87 ± 0.25
37 | AGGAAGCAAUAUUACGGACC | -0.483 ± 0.27 | 0.238 ± 0.27
38 | UCUUAGCAAUAUUACGUUUG | -3.07 ± 0.17 | -2.48 ± 0.27
39 | AACGAGCAAUAUUACGCGCU | -3.43 ± 0.2 | -0.902 ± 0.14
40 | AUGUAGCAAUAUUACGAUUU | -0.199 ± 0.093 | 0.373 ± 0.11
41 | AUAGAGCAAUAUUACGAGGG | -3.05 ± 0.25 | -1.56 ± 0.26
42 | UUCAAGCAAUAUUACGCGUG | -3.38 ± 0.17 | -2.13 ± 0.17
43 | UGCUAGCAAUAUUACGAAUC | -3.2 ± 0.15 | -3.95 ± 0.29
44 | CGUGAGCAAUAUUACGACCC | -1.76 ± 0.23 | -0.787 ± 0.16
45 | GUUGAGCAAUAUUACGAGUU | – | -2.56 ± 0.33
46 | ACUAAGCAAUAUUACGCUGU | -2.77 ± 0.17 | -2.58 ± 0.35
47 | GGGCAGCAAUAUUACGGUCG | -0.993 ± 0.076 | -0.0756 ± 0.12
48 | UAAUAGCAAUAUUACGGCCA | -0.34 ± 0.17 | 0.175 ± 0.18
